From the nanobody polyreactivity screen of Harvey et al. (2022)

Experiment: yeast display, Sf9 membrane polyspecificity reagent, FACS + sequencing; frameworks hold sequencing errors
In short: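 A synthetic nanobody library was expressed on Saccharomyces cerevisiae BJ5465 by galactose induction for 36–48 hours. The library was stained for 1 hour at 4 °C with 10% biotinylated, detergent-solubilized Sf9 membrane reagent and enriched with streptavidin microbeads before FACS. Low and high (top ~1%) gates were set on anti-HA fluorescence for expression and streptavidin fluorescence for reagent binding, and each polyreactivity label reflects the gate of origin.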

Sequence | polyreactivity (PSR sort gate)
QVQLVESGGGLVQAGGSLRLSCASSGPTFNEYAMAWYRQAPRKERELVARITRGGSTYYADSVKGRFTISRDNAKNTFYFQINSLIPEDTAVYEFAADLSLLYGGYWITDYDYWVQGTQVTVSS | low polyreactivity
QVQLVESGGGLLHAGGSLRLSFAASGRIFYYNGMGWYRQAPGKERELVAAISRGGSTYYADSVKGRFTISRDNAKNTVYLQMNRLLPEDTAVYDCAAYRGGLVNYWGQGSQVTVSS | high polyreactivity
QVQHVESGGGLVQEGGILRLSCAASGFTYRTYAMGWSRQAPGQESELVADISGSGGSTYYADSVKGRFTISRDNAKNTVYLQMNSQKPEDTAVFYCAADDASWSNLGYEYWGQGTQVTVSS | high polyreactivity
QVQLVESGGGLVQAGGSLRLSCAASGRIFGRNAMGWYRQAPGKERELVAAISSSGGRTYYADSVKGRFTISRDNAKNTVYLQMNSLKPEDTAVYYCAAVGSLYYYRYDYWGQGTQVTVSS | high polyreactivity
QVQHVESGGVLVQAGGSLRLSCAASGSTFGGYAMGWYRQAPGKERELVASISRRGGSTYYADSVKGRFTLSRDNAKNTFYFHMNSLKPEDTAVYYCNAAFLRQVWDGYNYWGQGSQVTVSS | high polyreactivity
QVQLVESGGGLVQAGGSLRLSCAASGSIFYGNAMGWYRQAPGKEREFVAAINWSGARTYYADSVKGRFTISRDNAKNTVSLQMNSLKPEDTAVYYCAAGRPFSFRYEFDYWGQGTQVTVSS | high polyreactivity
QVQLVESGGGLVQAGGSLRLSCAASGSTFWVYTMGWYRQAPGKERELVAAINYSDGSTYYADSVKGRFTISRDNAKNTVYLQMNRLKPEDTAVYYCAAGSDPTGRRYDYWGQGTQVTVSS | low polyreactivity
QVQLVDSGGGLVQAGGSLRLSCSASGITNGRNTMGLYRQAPGKERELVAAIDSGGNTYADSVKGRFTISRDNAKNTVYLQMNSLKPEDTAVYYCAVDGGEFSSYGYWGQGTQVTVSS | low polyreactivity
QVQLVESGGGLVQAGGSLRLSCAASVFTCAVYVMGWYRQAPGKERELVANISFSVGSTYYADSVKGRFTISRDYAKNTVYLQMNSLKPEDTAVYYCNADPPPEYYPDKDNYWGQGTQVTVSS | low polyreactivity
QVQLVESGGGLVQAGCSLRLSCAASGTIFWYYAMGWYRQAPGKERELVAAISSGGSTYYADSVKGRFTISRDNAKNTVYLQMNSLKPEDTAVYYCNVRLRKKIQNSKYDYWGQGTQVTVSS | high polyreactivity
QVQLVESGGGLVQAGGSLRLSCAASGITLYGNAMGWYRQAPGKERELVAAITGRGGSTYYADSVKGRFTISRDNAKNTVYLQMNSLKPEDTAVYYCNKAQSRSQLYGYWGQGTQVTVSS | high polyreactivity
QVQLVESGGALVQAGGSLRLSCAASGRTFFGNAMGRYRQAPGKERELVAAISFSGGRTDYADSVKGRFTISRDNAKNTVFLQMNSLKPEDTAVYYCAARTYSAPRNRYYYWGQGTQVTVSS | high polyreactivity
QVQLVESGGGLVQAGGSLRLSCAASGRIFYGNAMGWYRQAPGKERQLVAAITDGGSTNYADSVKGRFTISRDNAKNTVYLQMNSLKPEDTAVYYCAKDYRGSYYKYDYWGQGTQVTVSS | low polyreactivity
QVQLVESGGGLVQEGGSLRLSCAASGSTFYWYAMGWYRQAPGKERELVATISNTGRTYYADSVKGRFTISRDNAKNTVYLQMNSLKPEDTAVYDCAAKRSQRWRYDYWGQGTQVTVSS | high polyreactivity
QVQLVDSGGGIVQAGGSLRLSCAASGLTFSDYAMGWYRQAPGKEREFVAAITRNGGSTRYADSVKGRFTISRDNAKNTVYLQMNSLKPEDTAVDYCATDVGFGSKQRPHRPGYGYWGQGTQVTVSS | low polyreactivity
QVQLVESGGGLVQAGGSLRLSCAASGRTFKYYAMGWYRQAPGKERELVAAISVSGGRTYYADSVKGRFTISRDNAKNTVYLQMNSLKPEDTAVYYCNAVRYVHPEDYWGQGTQVTVSS | high polyreactivity
QVQLVESGGGLVQAGGSLRLSCAASGGTFRKYTMGWYRQAPGKERELVAAISSTGSSTYYADSVKGRFTISRDNAKNTVYLQMNSLKPEDTAVYYCAADVFSGYYWPVLEDHWGQGTQVTVSS | high polyreactivity
QVQLVESGGGLVQAGGSLRLICAASGITFWYYAMGWSRQEPGKERELVAAITRRGRTNYADSVKGRFTISRDNAKNTVYLQMNSLKPEVTAVYYCAVDLYSFSPRYYYWGQGTQVSVSS | low polyreactivity
QVQLVESGGGLVQAGGSLRLSCAASGSIFGRYAMGWYRQAPGKERELVADISWSGGRTYYADSVKGRFTISRDNAKNTVYLQMNSLKPEDTAVYYCNKVYRWFTRFDYWGQGTQLTVSS | high polyreactivity
QVQLVESGGGLVQAGGSLRLSCAASGSNFNYYVMGGYRQAPGKERELVAAISRSGTSTYYADSVKGRFTISRDNAKNTVYLQMNRLKPEDSSVYYCAARVSHKYRTYYYWGQGTQVTVSS | high polyreactivity
QVQIVESGGGLVQAGGSLRFSCAASGRIFRGYDMGWYRQAPGKEREFVAAISWSGGNTYYADSVKGRFTISRDNAKNTVYLLMNSLNPEDTAVYYCAARVFGSHFYYRTRPYDYWGQGTQVTVSS | high polyreactivity
QVQLVESGGGLVQAGGSLRLSCAASGFTITDYAMGWYRQAPGKVRELVAAITWSGGSTYYADSVKGRFTLSRDNAKNTVYLQMNSLKPEDTAVYYCNKVTEGLKMDYWGQGTQVTVSS | low polyreactivity

Sequence | polyreactivity (PSR sort gate)
QVQHVESGGGLVQAGGSQRLSCAASGSTLYYNAMGWYRQAPGKEREFVAGISSSGGRTYYADSVKGRFTISRDNAKNTVYLQMNSLKPEDTAVYYCARVGAIPSRYGYWGQGTQVTVSS | high polyreactivity
QVQLVESGGGLVQAGGSHRISCAASGLTFFRNAMGWYRQAPGKERELVATITSTSSTNYADSVKGRFTISRDNAKNKVYLQMYSVKPEDTAVYYCNARVYYKYVGRMYYWGQGTQVTVSS | high polyreactivity
QVQLVQSGGGLVQAGGSLRLSCAASGSTFYQYAMGWYRQSPGKERELVAAISRSGSTNYADSVKGRFTHSRDNAQNTVYLQMNSMKPEDSAVYYCAARLGTRQYKMDYWGQGTQVTVSS | high polyreactivity
QVQLVESGGGLVQAGGSLRLSCAASGRIFWHNAMGWYRQAPGQERELVAAITGGGSTYYADSVKGRFSISRDDAKNTVYLQMNSLKPEDTAVYYCATLGSLRYYWPGYDYWGQGTQVTVSS | low polyreactivity
QVQLQESGGGLVQAGGSLRLSCAASGTITVLYKMVWFRQAPGKEREFVASINYGTSTYYADSVKGRFTVSRDSAKNTVYLQMNSLKPEDTAVYYCAAAYRWQDVYRYWGQGTQVTVSS | low polyreactivity
QVQLVESGGGIVQAGGSLRLSCAASGLTFGFNAKGWYTQAPGQERELVATIDLNGGSTTYADSVKGRFTLSRDNAKNTVYLQMNSLKPEDTAVYYCAAQTGFVSHFFSHYDYGGQGTQVTVSS | low polyreactivity
QVQLVESGGGLVQAGGSLRLSCAASGRIFPVNAMGWYRQAPGTERELVATISSGDITNYAHSVKGRFTISRDNAKNTVYLQMNSLKPEDTAVYYCAADYTWRAWTYYGIKYNYWGQGTQVTVSS | low polyreactivity
QVQLVESGGGLVQAGGSLRLSCAASGITFKYYAMGWYRQAPGKERELVAAITRGGSTYYADSVKRRFTISRDNAKTTVYLQMNSLKPVDTAVYYCNKARTYELYWGQGTQVTVSS | high polyreactivity
QVQLVESGGGLVQAGGSLRLSCAPSGSIFSYYDIGWYIQAPGKERELVAAISWDGGDRTYADSVKGRFTISRDNAKNTVYLQMTSLKPEDTAVYYFAAGWDASYGYDYWGQGTQLTVSS | low polyreactivity
QVQLVESGGGLVQAGGSLRLSCAASGITFYRYAMGWYRQAPGKERELVAAISSRGGRTYYADSVKGRFTISRDNAKNTVYLQMNSLKPEDTAVYYCAKGGKVGSTLEYDYWGQGTQVTVSS | high polyreactivity
QVQLVESGGGFVQAGGSLRLSCAASGLTFYGNVMGWYRQAPGKERELVAAITRRGTSTYYADSVKGRFTLSRDYAKNTVYLQMNRLKPEDTAFYYCAAGTAYSRFGYWGQGTQVTVSS | high polyreactivity
QVQLVESGGRLVQAGGSLRLSCAASGSTFDENAMGWYRQAPGKERELVAAISRRGVSTYYADSVKGRFTISRDNEKNTVYLQMNSVKPEDTAVYYCARRYGGVGMYYWGQGTQVTVSS | high polyreactivity
QVQQQESGGGLVQAGGSLRLSCAASGTIFQLTVMGRYRQAPGQERELVASIDYGGNTNYADSVNGRFTISRDNAKNTVYLQMNSLKPEDTAVYYCAASSDSWTTHPYWGQGTQVTVSS | low polyreactivity
QVQLVESGGGLVQAGGSLRLSCADSGRNFYYYAMGWYRQAPGKERELVAAITSGGRTNYADSVKGRFTISRDNAKNNVYLQMNSLKPEDTAVYYGAATSKYKVRYSRYYYWGQGTQVTVSS | high polyreactivity
QVQLVESGGGLVQAGGSLRLSCAASGYTLTPYTMGWYRQAPGKERELVAAINRSGGSTYYADSVKGRFTISRDNAKNTVYLQMNSLKPEDTAVYYCAAYGYYNFGYYYWGQGTQVTVSS | high polyreactivity
QVQLVESGGGLVQAGGSLRLSCAASGLTFWFNAMGWYRPAPGKERALVGAIRNRGGSTYYADSVKGRFTISRDTAKNTVYLQMNSLKPEDTAVYYCAAVSWFLVGPRYYYWGQGTQVTVSS | high polyreactivity
QVQLVESGGGLVQAGGSLRLSCAASGSTFWGYAMGWYRQAPGKERELVAAINWIGGSDTFYADSVKGRFTISRDNAKNTVYLQMNSLKPEDTAVYYCAATYYNLPYSWGYDYWGQGTQVTVSS | low polyreactivity
QVQLVESGGGLVQAGGSLRISCAASGRILYLNAMGWYRQAPGIEREFVAAISKSGGTTYYADSVKGRFTISRDKAKHTDYLQMNSLKPEDTAVFYCAVDIVRCGRDSWGQGTQVTVSS | low polyreactivity
QVQLVESGGGLVQAGGSLRLSCAASGSIFLVYAMGWYRQAPGKERELVAAISSDGDDTYYADSVKGRFTISRDNAKNTVYLQMNSLKPEDTAVYYCAAESYTYYADYGYGYWGQGTQVTVSS | high polyreactivity
QVQLVESGGGLVQAGGSLRLSCAASGITFARYAMAWYRPAPGKERELVAAISKRGGRTYYADSVKGRFTISRDNAKNTFYLQMNSLKPEDTAVYYCATDYYVSTDYNYWGQGTQVTLSS | high polyreactivity
QVQLVESRGGLVQAGGSLRLSCAASGSIFPYNAMGWYRQAPGKEREFVAAINLSGGSTNYADSVKGRFTISRDNAKNTVYLQMNSLKPEDTAVYYCNAPVDYFWPLNFDYWGQGTQVTVSS | low polyreactivity
